# Results: patent US20250382354A1
# Read-outs that look alike come from different tables or passages of the source.
# Assays:
# [1] = target: SARS-CoV-2 S ectodomain, ancestral (S-2P) (SARS-CoV-2) (UniProt P0DTC2)
# [2] = target: SARS-CoV-2 S ectodomain, ancestral (S-2P) (SARS-CoV-2) (UniProt P0DTC2); remark: listed apart in the source
# [3] = target: SARS-CoV-2 S Ancestral (S-2P ectodomain) (SARS-CoV-2 (ancestral)) (UniProt P0DTC2); test: protein ELISA
# [4] = target: SARS-CoV-2 S ectodomain, ancestral (S-2P) (SARS-CoV-2) (UniProt P0DTC2); test: ELISA on coated S
Substance,IC50 (read off the curve) [1],IC50 (read off the curve) [2],EC50 [3],EC50 [4]
C121 (antibody),1 µg/mL,0.3 µg/mL,0.0187 µg/mL,–
CV3-25 (antibody),–,–,–,0.0139 µg/mL
S2P6 (antibody),–,–,–,0.0379 µg/mL
